Data on four molecules can be found in patent US20180196057A1 (VENTANA MEDICAL SYSTEMS, published 2018).

The target of test [1] is T1, human pro-epiregulin (human, UniProt O14944 30-169).
T1 construct: Endogenous protein in FFPE tissue sections, xenografts and cell lysates (IHC, Western blot); also called EREG; pro-EREG
T1 sequence: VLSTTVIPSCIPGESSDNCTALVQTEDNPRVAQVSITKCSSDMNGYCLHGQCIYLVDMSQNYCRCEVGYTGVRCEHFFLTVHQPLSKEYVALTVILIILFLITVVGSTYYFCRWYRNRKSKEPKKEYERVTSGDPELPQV
The test is described as follows: recombinant antibodies screened for binding to human pro-epiregulin by IHC.

The target in test [2] is T2, human amphiregulin (human, UniProt P15514 20-252).
T2 construct: Endogenous protein in FFPE tissue sections and cell lysates (IHC, Western blot); also called AREG; pro-AREG
T2 sequence: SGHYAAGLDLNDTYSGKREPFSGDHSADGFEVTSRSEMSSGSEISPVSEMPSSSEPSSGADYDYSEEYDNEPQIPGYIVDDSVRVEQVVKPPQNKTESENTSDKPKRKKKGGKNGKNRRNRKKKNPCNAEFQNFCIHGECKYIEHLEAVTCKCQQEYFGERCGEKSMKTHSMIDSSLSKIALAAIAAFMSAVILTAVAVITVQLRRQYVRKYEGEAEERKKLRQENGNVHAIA
The test is described as follows: IHC on FFPE carcinoma cell lines and colorectal cancer cases (OptiView DAB). How it is done:
(§1) All assay optimization were performed on human non-small cell lung carcinoma (NSCLC) (NCI-H1975; NCI-H1650; H460; NCI-HCC827; H2228; Calu-3; H820), breast (MCF7; A431) carcinoma cell lines and colorectal cancer tissues. Stained slides for the tested conditions were evaluated by a trained pathologist and the optimal staining conditions were determined based on the staining intensity, percentage of positive cells and the level of non-specific (background) staining.
(§2) The assay performance of EREG/AREG IHC assays were evaluated on 8 colorectal cancer cases kindly provided by Dr. Paul Waring. Specimens were immunohistochemically stained for EREG expression with clone J5H1L1 and for AREG expression with J111H1L10 on a VENTANA BenchMark XT IHC/ISH instrument.

For test [3], the target named is T1, human pro-epiregulin. The test is described as above. The method, then: as §1, §2

B1: anti-human pro-epiregulin monoclonal antibody J89H12L3 (antibody, V domains shown)
VH: KSVEESGGRLVTPGTPLTLTCTVSGIDLSTFAMAWVRQAPGKGLEYIGFISLSDATYYATWAKGRFTISKSSSTTVDLKIITPTAEDTATYFCARVVGDSSGYPNTFHPWGPGTLVTVSS
VL: QVLTQTPSPVSAAVGGTVTINCQASQSIHNSDFLAWYQQKPGQPPKLLIYRASKLPSGVPSRFKGSGSGTQFTLTISDLECDDAATYYCQGTYYSGGWYFTFGGGTEVVVK
notes: also called clone J89H12L3
Take B1: the binding result in test [1] is given as “binds”.

B2: anti-human pro-epiregulin monoclonal antibody J89H12L8 (antibody, V domains shown)
VH: KSVEESGGRLVTPGTPLTLTCTVSGIDLSTFAMAWVRQAPGKGLEYIGFISLSDATYYATWAKGRFTISKSSSTTVDLKIITPTAEDTATYFCARVVGDSSGYPNTFHPWGPGTLVTVSS
VL: QVLTQTPSPVSAAVGGTVTINCQASQNIHNSDFLAWYQQKPGQPPKLLIYRASKLPSGVPSRFKGSGSGTQFTLTISDLECDDAATYYCQGTYYSGGWYFTFGGGTEVVVK
notes: also called clone J89H12L8
B2: in test [1], the binding result is listed as “binds”.

B3: anti-human amphiregulin monoclonal antibody J111H1L10 (antibody, V domains shown)
VH: QSLEESRGGLIKPGGTLTLTCTVSGFSLSSYAISWVRQAPGNGLEWIGFIVGSSGSAYYASWAKSRSTITRDTNLNTVTLKMTSLTAADTATYFCAKGLYSGGNYWGPGTLVTVSS
VL: AVLTQTPSPVSAAVGGTVSISCQSSQSVDENNYLSWFQQKPGQPPKLLIYRASTLESGVPSRFSGSGSGTQFTLTVSGVQCDDAATYYCLGGYSGYSDDGFGGGTEVVVK
notes: also called clone J111H1L10; AREG J111H1L10
As to B3, the binding result in test [2] is “binds”.

B4: anti-human pro-epiregulin monoclonal antibody J5H1L1 (antibody, V domains shown)
VH: QSVEESGGRLVTPGTPLTLTCTVSGFSLSRYGMSWVRQAPGKGLEYIGSINRTAYTYYATWAKGRFTISRTSTTVDLRMTSLTTEDTATYFCARGLTYGGSDYDYDDALWGPGTLVTVSS
VL: QVLTQTPSSVSAAVGGTVTINCQASQSVYKNKNLAWYQQKPGQPPKLLIYRASTLASGVSSRFKGSGSGTQFTLTISGVQCADAATYYCQGEFSCSTFDCILFGGGTEMVVK
notes: also called clone J5H1L1; EREG J5H1L1
Turning to B4, the binding result in test [3] is listed as “binds”.
